Test results as given in US20210340264A1.

Biological target: human SSTR2 (isoform A, UniProtKB P30874) (human) (UniProt P30874)
Test: flow cytometry, BON-1 cells, same staining conditions (FIG. 10B)

human SSTR2, sequence (P30874 whole entry, canonical isoform): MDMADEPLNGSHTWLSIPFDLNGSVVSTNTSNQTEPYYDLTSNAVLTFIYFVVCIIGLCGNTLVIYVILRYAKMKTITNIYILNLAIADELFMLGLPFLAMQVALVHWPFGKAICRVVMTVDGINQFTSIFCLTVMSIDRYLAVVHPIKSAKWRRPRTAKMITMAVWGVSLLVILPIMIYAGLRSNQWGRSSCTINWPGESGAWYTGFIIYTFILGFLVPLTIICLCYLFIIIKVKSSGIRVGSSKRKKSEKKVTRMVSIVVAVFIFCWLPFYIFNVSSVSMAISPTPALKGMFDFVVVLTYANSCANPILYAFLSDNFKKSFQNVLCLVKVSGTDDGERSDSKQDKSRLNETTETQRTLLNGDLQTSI

Substance: commercial anti-SSTR2 mAb (R&D Systems, Catalog# MAB4224) (antibody)
- surface binding percentage: 38%
